# PMC5458251
# Target: SEPT9_i1-YN (split-YFP chimera: septin 9 isoform 1 with EE tag, linker and N-terminal YFP fragment on its C-terminus) (human) (UniProt Q9UHD8)
# Assay: split reporter (BiFC, NanoBiT); split YFP (YN/YC) in live PC-3 cells, transient co-transfection with 10-fold more HIF-1α plasmid than SEPT9_i1 plasmid, confocal imaging 48 h after transfection; cells treated overnight with 250 μM CoCl2, 100 μM DBM, DBM with 1 μM 17-AAG or 150 μM FCF, or 0.01% DMSO
# Sequence of UniProt Q9UHD8 (Q9UHD8 whole entry, change not shown, the tested form may be a part, canonical isoform): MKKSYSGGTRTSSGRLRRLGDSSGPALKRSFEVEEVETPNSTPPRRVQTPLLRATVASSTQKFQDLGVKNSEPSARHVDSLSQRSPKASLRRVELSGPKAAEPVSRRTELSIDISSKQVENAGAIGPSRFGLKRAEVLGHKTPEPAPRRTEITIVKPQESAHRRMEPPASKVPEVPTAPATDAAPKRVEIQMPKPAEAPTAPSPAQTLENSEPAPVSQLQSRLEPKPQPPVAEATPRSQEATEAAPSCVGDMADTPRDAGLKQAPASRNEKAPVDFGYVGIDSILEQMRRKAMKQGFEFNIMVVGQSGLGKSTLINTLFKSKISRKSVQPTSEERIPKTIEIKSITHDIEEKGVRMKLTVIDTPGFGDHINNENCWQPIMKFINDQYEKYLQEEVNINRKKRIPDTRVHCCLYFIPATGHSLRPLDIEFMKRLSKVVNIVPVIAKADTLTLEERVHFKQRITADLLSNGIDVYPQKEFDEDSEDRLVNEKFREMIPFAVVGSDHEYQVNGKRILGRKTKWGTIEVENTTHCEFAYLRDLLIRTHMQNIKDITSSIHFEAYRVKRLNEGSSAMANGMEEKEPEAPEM
substance,measurement,value
YC-HIF-1α-DPM (YC chimera of double proline mutated HIF-1α) (from UniProt Q16665 1-826) (natural protein),fold BiFC signal against YC-ΔHLH-HIF-1α with SEPT9 i1-YN,11 fold
